From patent US20050187160A1
Where “and” joins values, the source holds several entries; their conditions need not be identical. Equal entries are not always repeated. Each block holds one substance with its values, some of them ahead of it.

Target: T1, rabbit GH receptor (full length, stably expressed on murine FDC-P1 cells, GH-R4 line) (rabbit) (UniProt P19941)
T1 sequence (looked up): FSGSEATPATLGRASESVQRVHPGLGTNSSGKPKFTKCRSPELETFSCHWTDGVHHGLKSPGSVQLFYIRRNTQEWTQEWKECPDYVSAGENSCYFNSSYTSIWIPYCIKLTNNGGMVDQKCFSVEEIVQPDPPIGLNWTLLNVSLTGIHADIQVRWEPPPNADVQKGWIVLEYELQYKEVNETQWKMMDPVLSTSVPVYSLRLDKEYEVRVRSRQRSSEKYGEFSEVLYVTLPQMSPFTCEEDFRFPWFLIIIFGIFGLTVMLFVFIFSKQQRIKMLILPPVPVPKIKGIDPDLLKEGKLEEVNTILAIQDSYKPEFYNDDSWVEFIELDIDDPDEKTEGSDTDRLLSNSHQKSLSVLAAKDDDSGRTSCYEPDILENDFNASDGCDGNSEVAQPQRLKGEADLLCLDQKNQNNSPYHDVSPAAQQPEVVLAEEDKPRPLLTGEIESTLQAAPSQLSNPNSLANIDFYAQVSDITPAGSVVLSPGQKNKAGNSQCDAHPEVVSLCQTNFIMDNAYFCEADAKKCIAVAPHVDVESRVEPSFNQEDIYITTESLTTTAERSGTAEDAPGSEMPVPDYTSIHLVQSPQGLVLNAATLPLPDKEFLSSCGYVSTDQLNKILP
Test: cell-based or functional assay

Substance: PEG-T3C hGH (mono-PEGylated T3C monomer) (from UniProt P01241 27-217) (ligand)
mean EC50 (molar form), cell proliferation assay (Example 1): 0.07 nM

Substance: hGH cysteine mutein T3C, disulfide-linked homodimer (from UniProt P01241 27-217) (ligand)
Mean EC50, proliferation of FDC-P1 cells expressing the rabbit GH receptor (GH-R4), MTS: 1.4 ng/mL

Substance: hGH cysteine mutein T148C (from UniProt P01241 27-217) (ligand)
EC50, individual experiment (T148C-lotA), proliferation of FDC-P1 cells expressing the rabbit GH receptor: 0.4 ng/mL and 0.5 ng/mL
EC50, individual experiment (T148C-lotB), proliferation of FDC-P1 cells expressing the rabbit GH receptor: 1.5 ng/mL and 1.9 ng/mL and 3.1 ng/mL
Mean EC50 (T148C-lotA), proliferation of FDC-P1 cells expressing the rabbit GH receptor (GH-R4), MTS: 0.5 ng/mL
Mean EC50 (T148C-lotB), proliferation of FDC-P1 cells expressing the rabbit GH receptor (GH-R4), MTS: 2.5 ng/mL

Substance: wild-type recombinant human growth hormone (rhGH) secreted to the E. coli periplasm from stII-hGH (from UniProt P01241 27-217) (ligand)
EC50, individual experiment, proliferation of FDC-P1 cells expressing the rabbit GH receptor: 0.8 ng/mL and 1.1 ng/mL
Mean EC50, proliferation of FDC-P1 cells expressing the rabbit GH receptor (GH-R4), MTS: 0.8 ng/mL

The next lines start with the values.

EC50, individual experiment, cell proliferation assay (Example 1): 40 ng/mL and 45 ng/mL
mean EC50 (molar form), cell proliferation assay (Example 1): 2 nM
Substance: PEG-S144C hGH (mono-PEGylated S144C) (from UniProt P01241 27-217) (ligand)

EC50, individual experiment (second value), proliferation of FDC-P1 cells expressing the rabbit GH receptor: 1.1 ng/mL
Mean EC50, proliferation of FDC-P1 cells expressing the rabbit GH receptor (GH-R4), MTS: 1.6 ng/mL
Substance: hGH cysteine mutein S144C (from UniProt P01241 27-217) (ligand)
